The values below come from patent publication US20040167319A1 (Genmab, published 2004).

The target in this test is human CD20 (human) (UniProt P11836). The experiment in a line: dissociation of 125I-labelled F(ab)2 fragments from Ramos-EHRB cells, initial binding set at 100%.
human CD20 (human), sequence (P11836 whole entry, the tested form may be a part): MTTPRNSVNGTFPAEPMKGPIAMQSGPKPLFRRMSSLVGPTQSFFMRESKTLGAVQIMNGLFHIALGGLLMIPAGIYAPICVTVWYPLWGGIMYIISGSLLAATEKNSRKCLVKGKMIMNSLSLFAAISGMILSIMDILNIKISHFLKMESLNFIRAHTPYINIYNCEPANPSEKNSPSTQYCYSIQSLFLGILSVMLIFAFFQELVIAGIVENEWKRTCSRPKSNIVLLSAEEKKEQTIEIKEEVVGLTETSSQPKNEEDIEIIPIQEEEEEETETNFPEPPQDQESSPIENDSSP

F(ab′)2 fragment of rituximab showed a percent still bound at 90 min of 50%.
